Columns and labels:
pNP-C2 = test: Proxy for plastic degradation [Specific activity]
PET; PCL = test: Proxy for plastic degradation [Titratable acid release]; conditions: pH 7.5; 14 h

B1: unnamed (protein)
chain: MVRVFGLTLLALLVPALAAPVPEDLEARQSGCADVMVVYARGTDQDSPIGDPASVGVLFRDNIKSLLGSRTFSFQGVNYAANVIGFLQGGDPAGSRQMTTDLTNVANSCPNAKIVSAGYSQGGQLVHNSAAQLTAAVRNRINAVVIFGDPKSDQAVTGIPSSNVKIICHDGDNICEGGFIVTSQHTNYQQDAPAAAQFVLSKV
Question: Which results are given for B1?
Answer: Proxy for plastic degradation (pNP-C2; pH 2): 0 U/mg; Proxy for plastic degradation (pNP-C2; pH 3): 0 U/mg; Proxy for plastic degradation (pNP-C2; pH 4): 0 U/mg; Proxy for plastic degradation (pNP-C2; pH 5): 14500 U/mg; Proxy for plastic degradation (pNP-C2; pH 6): 27500 U/mg; Proxy for plastic degradation (pNP-C2; pH 7): 29500 U/mg; Proxy for plastic degradation (pNP-C2; pH 7.5, 0 h): 17500 U/mg; Proxy for plastic degradation (pNP-C2; pH 7.5, 20 °C): 0 U/mg; Proxy for plastic degradation (pNP-C2; pH 7.5, 30 °C): 22500 U/mg; Proxy for plastic degradation (pNP-C2; pH 7.5, 40 °C): 32500 U/mg; Proxy for plastic degradation (pNP-C2; pH 7.5, 50 °C): 20000 U/mg; Proxy for plastic degradation (pNP-C2; pH 7.5, 60 °C): 300 U/mg; Proxy for plastic degradation (pNP-C2; pH 7.5, 70 °C): 0 U/mg; Proxy for plastic degradation (pNP-C2; pH 7.5, 80 °C): 0 U/mg; Proxy for plastic degradation (pNP-C2; pH 7.5, 1 h): 19400 U/mg; Proxy for plastic degradation (pNP-C2; pH 7.5, 2 h): 22500 U/mg; Proxy for plastic degradation (pNP-C2; pH 7.5, 3 h): 35000 U/mg; Proxy for plastic degradation (pNP-C2; pH 7.5, 4 h): 25000 U/mg; Proxy for plastic degradation (pNP-C2; pH 7.5, 5 h): 18500 U/mg; Proxy for plastic degradation (pNP-C2; pH 8): 32200 U/mg; Proxy for plastic degradation (pNP-C2; pH 9): 10000 U/mg; Proxy for plastic degradation (PET; PCL): 10.9 mL
